In publication PMC3139177:

These substances were tested against Recombinant platelet-derived growth factor-BB (UniProt P01127) (assay: SPR).
Sequence of UniProt P01127 (P01127 82-190): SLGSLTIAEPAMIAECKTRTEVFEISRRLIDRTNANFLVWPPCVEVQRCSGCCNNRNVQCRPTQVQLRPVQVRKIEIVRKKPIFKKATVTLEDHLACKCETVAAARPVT
Substance “Recombinant fibronectin variable domain (domain or fragment)” has a Kd of 141 nM. For “Recombinant fibronectin type III repeat 1 (domain or fragment)”, the Kd was 103 nM. Substance “Recombinant fibronectin type III repeats 13–14 (domain or fragment)” has a Kd of 9 nM.
